In experiment [1] the target is Rpt2 (subunit of the base) (yeast, UniProt P40327 1-437). Put plainly: cryo-EM structure.
For experiment [2], the target named is T1, Rpt1 (subunit of the base) (yeast, UniProt P33299 1-467).
T1 sequence: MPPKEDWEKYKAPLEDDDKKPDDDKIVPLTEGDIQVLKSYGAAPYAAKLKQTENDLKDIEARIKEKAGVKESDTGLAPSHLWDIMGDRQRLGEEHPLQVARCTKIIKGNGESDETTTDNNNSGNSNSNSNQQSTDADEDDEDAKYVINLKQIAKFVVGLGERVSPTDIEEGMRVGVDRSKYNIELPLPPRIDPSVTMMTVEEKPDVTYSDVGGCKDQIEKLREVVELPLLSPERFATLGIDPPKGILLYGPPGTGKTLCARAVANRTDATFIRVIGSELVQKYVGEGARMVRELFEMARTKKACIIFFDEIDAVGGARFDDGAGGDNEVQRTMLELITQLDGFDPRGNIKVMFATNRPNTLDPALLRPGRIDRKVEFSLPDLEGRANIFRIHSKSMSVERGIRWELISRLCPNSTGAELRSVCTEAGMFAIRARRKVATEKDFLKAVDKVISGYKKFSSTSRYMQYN
Put plainly: cryo-EM structure.

Chain of Rpt2 (subunit of the base) (P40327 whole entry): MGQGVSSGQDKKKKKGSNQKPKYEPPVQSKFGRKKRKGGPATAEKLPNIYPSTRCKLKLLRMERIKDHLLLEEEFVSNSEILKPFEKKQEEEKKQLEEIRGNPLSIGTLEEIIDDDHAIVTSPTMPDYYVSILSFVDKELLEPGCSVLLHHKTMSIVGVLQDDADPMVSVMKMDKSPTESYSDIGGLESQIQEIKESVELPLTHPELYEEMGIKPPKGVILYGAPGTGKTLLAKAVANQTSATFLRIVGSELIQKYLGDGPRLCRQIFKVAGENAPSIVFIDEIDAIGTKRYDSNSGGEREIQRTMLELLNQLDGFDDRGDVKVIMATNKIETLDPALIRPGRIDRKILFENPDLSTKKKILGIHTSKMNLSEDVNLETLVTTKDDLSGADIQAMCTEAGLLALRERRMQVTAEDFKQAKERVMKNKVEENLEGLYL

B1: CP subunit α3 (natural protein)
chain: MGSRRYDSRTTIFSPEGRLYQVEYALESISHAGTAIGIMASDGIVLAAERKVTSTLLEQDTSTEKLYKLNDKIAVAVAGLTADAEILINTARIHAQNYLKTYNEDIPVEILVRRLSDIKQGYTQHGGLRPFGVSFIYAGYDDRYGYQLYTSNPSGNYTGWKAISVGANTSAAQTLLQMDYKDDMKVDDAIELALKTLSKTTDSSALTYDRLEFATIRKGANDGEVYQKIFKPQEIKDILVKTGITKKDEDEEADEDMK
Regarding B1, the binding result in experiment [1] is on record as “binds”.

B2: CP subunit α4 (natural protein)
chain: MSGYDRALSIFSPDGHIFQVEYALEAVKRGTCAVGVKGKNCVVLGCERRSTLKLQDTRITPSKVSKIDSHVVLSFSGLNADSRILIEKARVEAQSHRLTLEDPVTVEYLTRYVAGVQQRYTQSGGVRPFGVSTLIAGFDPRDDEPKLYQTEPSGIYSSWSAQTIGRNSKTVREFLEKNYDRKEPPATVEECVKLTVRSLLEVVQTGAKNIEITVVKPDSDIVALSSEEINQYVTQIEQEKQEQQEQDKKKKSNH
For the molecule B2, the binding result in experiment [1] and in experiment [2] was “binds” in each case.
